Assay results as given in article PMC9901739.

Molecular target: acetylesterase LgEstI from Lactococcus garvieae (Lactococcus garvieae)
Test: SEC; Superdex 200 10/300 GL; 20 mM Tris-HCl pH 8.0, 200 mM NaCl, 1 mM TCEP, 5% glycerol; standard curve from a protein standard mix of 15-600 kDa

Question: For “acetylesterase LgEstI from Lactococcus garvieae (enzyme)”, which stoichiometry N is on record?
Answer: 2
